This is an account of results in patent US20150343090A1.

This assay addresses neuropilin-1 (NRP-1) receptor on PPC-1 prostate cancer cells (human) (UniProt O14786). Nature of the assay: cell-based or functional assay.
UniProt O14786, sequence (O14786 22-923): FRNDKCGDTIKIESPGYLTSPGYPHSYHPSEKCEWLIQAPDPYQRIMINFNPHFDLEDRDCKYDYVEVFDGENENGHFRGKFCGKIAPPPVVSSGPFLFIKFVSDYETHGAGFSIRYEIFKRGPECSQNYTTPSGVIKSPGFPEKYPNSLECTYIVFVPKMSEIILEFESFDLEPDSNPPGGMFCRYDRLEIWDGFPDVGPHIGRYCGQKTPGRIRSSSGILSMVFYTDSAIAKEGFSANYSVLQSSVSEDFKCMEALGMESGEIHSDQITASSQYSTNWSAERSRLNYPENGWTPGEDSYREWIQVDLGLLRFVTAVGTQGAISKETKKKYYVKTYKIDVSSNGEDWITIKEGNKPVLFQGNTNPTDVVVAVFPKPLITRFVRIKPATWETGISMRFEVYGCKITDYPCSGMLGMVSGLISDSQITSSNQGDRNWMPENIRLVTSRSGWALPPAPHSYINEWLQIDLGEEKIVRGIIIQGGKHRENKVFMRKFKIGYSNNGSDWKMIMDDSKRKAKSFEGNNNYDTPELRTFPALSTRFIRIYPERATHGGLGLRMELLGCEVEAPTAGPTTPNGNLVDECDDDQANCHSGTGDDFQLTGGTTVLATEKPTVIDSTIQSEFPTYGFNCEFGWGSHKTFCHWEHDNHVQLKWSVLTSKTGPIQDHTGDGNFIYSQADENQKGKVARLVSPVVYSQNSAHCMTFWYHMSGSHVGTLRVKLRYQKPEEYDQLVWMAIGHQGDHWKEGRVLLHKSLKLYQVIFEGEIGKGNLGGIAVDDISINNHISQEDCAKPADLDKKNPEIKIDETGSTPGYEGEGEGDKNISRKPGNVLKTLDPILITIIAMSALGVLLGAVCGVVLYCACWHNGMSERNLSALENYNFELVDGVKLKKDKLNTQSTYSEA

As to “His-tag-GFP-RPARPAR (RPARPAR-modified GFP fusion protein) loaded on NTA-Ni hollow gold nanoshells”, the GFP internalized per PPC-1 cell (cell lysate fluorescence) (GFP molecules per cell) worked out at 100000 and the nanoshells internalized per PPC-1 cell (calculated from cell lysate fluorescence) (RPARPAR GFP-HGN per cell) was 200.
